# Results from patent US20160137713A1 (HANALL BIOPHARMA, published 2016).
# Experiments:
# soluble human FcRn [1] = molecular target: T1, soluble human FcRn (human, UniProt P55899 24-297; P61769 21-119); assay: SPR, shFcRn immobilised, pH 6.0
# T1 construct: extracellular domain;mature; Non-covalent heterodimer secreted by 293 cells, purified on IgG Sepharose; also called shFcRn; soluble FcRn
# Method: (§1) Measurement of the binding ability of antibody by SPR was performed by immobilizing shFcRn as a ligand onto a Proteon GLC chip (Bio-Rad) and measuring affinity.
# (§2) The analysis of ligand and analyte was performed using a Proteon GLC chip, and the interaction was analyzed at a pH of 6.0 and a pH of 7.4. Immobilization of the ligand was activated by injecting a 1:1 mixture of 1×EDAC (EDC) and 1× Surfo-NHS for 5 minutes. shFcRn was diluted in 10 mM sodium acetate (pH 4.5) at a concentration of 25 μg/ml and added to the ligand at a flow rate of 30 μl/min for 5 minutes. […] The analyte antibody was allowed to flow on the immobilized chip at a flow rate of 30 μl/min. […] The association time of the analyte antibody was 240 seconds, and the dissociation time was 600 seconds. Regeneration of the chip was performed by injecting 10 mM glycine (pH 2.5) at a flow rate of 100 μl/min for 18 seconds. Based on sensorgrams resulting from six concentrations of the analyte, kinetics analysis was performed using Proteon XPR36 software.
# soluble human FcRn [2] = molecular target: T1, soluble human FcRn; assay: SPR, shFcRn immobilised, pH 7.4
# Method: as §1, §2
# [3] = molecular target: T2, human FcRn on HEK293 cells (human, UniProt P55899 24-365; P61769 21-119); assay: FACS on hFcRn-overexpressing HEK293 cells at pH 6.0, Alexa488 anti-human goat antibody; MFI relative to hIgG1
# T2 construct: whole, on cells; also called hFcRn
# Method: (§3) In stable HEK293 cells expressing human FcRn, the degrees of binding of antibody to FcRn at various pHs were analyzed using a FACS system. Specifically, 100,000 stable HEK293 cells were washed with PBS and centrifuged in a table top microcentrifuge at 4500 rpm for 5 minutes to obtain pellets. 1 μg of antibody was added to 100 μl of pH 6.0 or pH 7.4PBS/10 mM EDTA. The cell pellets were resuspended in 100 μl of the antibody solution and incubated on ice for 60 minutes. The cells were washed once with 150 μl of buffer having pH difference, and then pellets were obtained therefrom. Alexa488-labeled anti-human antibody goat antibody (1 mg/ml) was diluted at 1:20 in buffer having pH difference, and the pellets were resuspended in 100 μl of the buffer, and then cultured on ice for 60 minutes. The cells were washed once with 150 μl of buffer having pH difference, and pellets were obtained therefrom and resuspended in buffer having pH difference. The suspension was transferred into a tube for FACS analysis. These cells were analyzed by FACS using BD FACSDiva™ v6.1.3 software (BD Bioscience). The results of the analysis were expressed as Mean Fluorescence Intensity (MFI) (see FIG. 2).
# [4] = molecular target: T2, human FcRn on HEK293 cells; assay: FACS on hFcRn-overexpressing HEK293 cells at pH 7.4, Alexa488 anti-human goat antibody; MFI relative to hIgG1
# Method: as §3
# [5] = molecular target: T2, human FcRn on HEK293 cells; assay: FACS competition on hFcRn HEK293 cells at pH 6.0; remaining binding of 100 nM Alexa488-labeled hIgG1 (m14) with 250 nM competitor antibody, percent of the tube without competitor
# Method: (§4) In stable HEK293 cells expressing human FcRn, the blocking of the antibody against FcRn was analyzed by FACS. The antibody was diluted in binding buffer (PBS pH 6.0, 10 mM EDTA) at concentrations of 2,000 nM, […] to make 50 μl of dilutions, which were dispensed into tubes. […] Stable HEK293 cells were diluted in binding buffer at a concentration of 2,500,000 cells/ml, and 40 μl of the cell dilution was added to each of the labeled antibody-containing tubes. Thus, a final volume of 100 μl contained 100,000 cells, 100 nM labeled antibody and 1000 nM, 500 nM or 250 nM competitor antibody. The cells were washed once with 150 μl of buffer (pH 6.0), and pellets were obtained therefrom and resuspended in 150 μl of buffer having pH difference. The suspension was transferred into a tube for FACS analysis. The cells were analyzed by FACS using BD FACSDiva™ v6.1.3 software (BD Bioscience). The results of the analysis were expressed as mean fluorescence intensity (MFI).
# (§5) The MFI of the test group was processed after subtracting the MFI (background signal) measured in cells alone.
# [6] = molecular target: T2, human FcRn on HEK293 cells; assay: FACS competition on hFcRn HEK293 cells at pH 6.0; remaining binding of 100 nM Alexa488-labeled hIgG1 (m14) with 500 nM competitor antibody, percent of the tube without competitor
# Method: as §4, §5
# [7] = molecular target: T2, human FcRn on HEK293 cells; assay: FACS competition on hFcRn HEK293 cells at pH 6.0; remaining binding of 100 nM Alexa488-labeled hIgG1 (m14) with 1000 nM competitor antibody, percent of the tube without competitor
# Method: as §4, §5
# T1 sequence (P55899 24-297, chain 1 of 2): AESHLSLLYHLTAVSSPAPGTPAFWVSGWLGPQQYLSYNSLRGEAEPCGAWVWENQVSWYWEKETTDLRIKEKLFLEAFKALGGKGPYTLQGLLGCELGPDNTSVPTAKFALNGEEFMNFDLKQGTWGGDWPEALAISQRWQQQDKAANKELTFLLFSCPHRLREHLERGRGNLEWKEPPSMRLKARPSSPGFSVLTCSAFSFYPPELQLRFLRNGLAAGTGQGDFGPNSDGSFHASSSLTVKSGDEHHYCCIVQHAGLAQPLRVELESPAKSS
# T1 sequence (P61769 21-119, chain 2 of 2): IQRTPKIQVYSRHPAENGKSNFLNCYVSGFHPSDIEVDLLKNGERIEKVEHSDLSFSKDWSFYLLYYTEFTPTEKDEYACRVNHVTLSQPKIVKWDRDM
# T2 sequence (P55899 24-365, chain 1 of 2): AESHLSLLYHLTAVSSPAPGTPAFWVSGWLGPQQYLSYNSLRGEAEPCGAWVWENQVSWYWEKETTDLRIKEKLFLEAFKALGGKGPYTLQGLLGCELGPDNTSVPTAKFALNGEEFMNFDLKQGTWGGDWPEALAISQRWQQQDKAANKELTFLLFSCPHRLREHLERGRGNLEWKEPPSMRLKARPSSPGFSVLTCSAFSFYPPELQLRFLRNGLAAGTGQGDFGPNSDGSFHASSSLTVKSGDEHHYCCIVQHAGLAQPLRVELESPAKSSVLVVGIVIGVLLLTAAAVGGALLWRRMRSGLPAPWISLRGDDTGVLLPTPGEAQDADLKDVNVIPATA
# T2 sequence (P61769 21-119, chain 2 of 2): as the sequence (P61769 21-119, chain 2 of 2) above
binder,measurement,setting,value
"HL161-6C (antibody, V domains shown, Whole human IgG from pNATAB vectors) VH: QVQLVESGAEVKKPGASVKVSCKASGYTFTSYYMHWVRQAPGQGLEWMGIINPSGGSTSYAQKFQGRVTMTRDTSTSTVYMELSSLRSEDTAVYYCARGGGAFDIWGQGTMVTVSS VL: DIQMTQSPSSVSASVGDRVTITCRASQGISNWVAWYQQKPGKAPKLLIYAASSLQSGVPSRFSGSGSGTDFTLTISSLQPEDFAIYYCQQGHSFPYTFGQGTKVEIK",koff,soluble human FcRn [1],0.0019 s⁻¹
same,kon,soluble human FcRn [1],1e+06 M⁻¹ s⁻¹
same,koff,soluble human FcRn [2],0.0031 s⁻¹
same,kon,soluble human FcRn [2],470000 M⁻¹ s⁻¹
same,Relative MFI (Fold),[3],0.9 fold
same,Relative MFI (Fold),[4],1.3 fold
same,Relative MFI(%) at 250nM,[5],88.2%
same,Relative MFI(%) at 500nM,[6],84.7%
same,Relative MFI(%) at 1000nM,[7],81.1%
